# Test results: patent US20080044412A1, “Single-Domain Antibody Strengthening Fusion Protein Vh-Ldp-Ae” (INSTITUTE OF MEDICINAL BIOTECHNOLOGY CHINESE ACADEMY OF …, priority 2004, published 2008)
# Several values for one entry are separate records, joined by “and”; a condition that tells them apart may be missing. Identical values can stand only once.
# Experiments:
# transplanted hepatoma 22 = assay: Transplanted hepatoma 22 growth in mice; conditions: for Inhibition rate / Tumor volume x ± s: tail vein, day 14
# Procedure: Kunming mice, weighing between 18-22 g, were randomly separated into different groups of 10 mice each. On day 0, hepatoma 22 cells (1.5×10^6 cells/0.2 ml/mouse) diluted with saline were transplanted subcutaneously into the right axilla of mice. On day 1 (after 24 h), the therapy was started and VH-LDP-AE at different doses, LDM at 0.05 mg/kg, mitomycin (MMC) at 1 mg/kg were administered respectively to the tumor bearing mice (0.2 ml/mouse) by injection into the tail vein. Mice of control group were injected with saline. Diameters of the tumors were measured every 3 days during the experiment. Weights of the mice were recorded. The tumor volumes were calculated with the following formula: V=0.5ab^2, where a and b is the long and the perpendicular short diameters of the tumor, respectively. The curves of tumor growth were plotted and the inhibition rates were calculated.
# HT-1080 cells = assay: MTT cytotoxicity assay, HT-1080; format: cell-based; conditions: 72 h
# Procedure: (§1) MTT assay was used. After digestion and counting, cells in exponential growth phase were seeded at 3000 cells/well in 96-well plates, and cultured at 37° C. in 5% CO2 for 24 hours. Drugs of various concentrations were added with 3 aliquots, and the cells were cultured for another 72 h. 50 μl of MTT (2 mg/ml) in serum-free RPMI 1640 were added into each well, and the cells were cultured at 37° C. for 4 h. Remove the culture medium gently; add 150 μl DMSO each well; incubate at room temperature for 15 min on a shaker; measure the absorbance at 560 nm on a microplate reader. Survival ratio and IC50 values were calculated according to the following equation: Survival ratio=(Atest−Ablank)/(Acontrol−Ablank)×100%.
# colon carcinoma 26 = conditions: cited from earlier work
# cecum carcinoma Hce-8693 = conditions: nude mice; cited from earlier work
# KB cells = assay: MTT cytotoxicity assay, KB; format: cell-based, human; conditions: 72 h
# Procedure: as §1
# hepatoma Bel-7402 = conditions: nude mice; cited from earlier work
# PG cells = assay: MTT cytotoxicity assay, PG; format: cell-based; conditions: 72 h
# Procedure: as §1
# [1] = system: solid tumor of mouse hepatoma 22; assay: Immunohistochemical (SABC) staining of mouse hepatoma sections; format: binding; conditions: FIG. 7
# Procedure: (§2) Immunohistochemical (IHC) staining was performed by streptavidin-biotin-peroxidase complex (SABC) staining with SABC kit (Boster Company). The sections were blocked by normal goat serum for 20 min at room temperature and the excessive liquid was removed. The sections without washing were added with diluted said VH-LDP fusion protein as prepared in example 3 and incubated at room temperature; then diluted anti-His6-tag antibody and biotinylated goat-anti-mouse IgG were added in turn. Finally SABC reagent was added. DAB kit was used as a chromogen for visualized reaction at room temperature. The sections were counter-stained by hematoxylin, dehydrated, cleared, sealed, and observed with microscope.
# [2] = system: type IV collagenase secreted by HT-1080 cells; assay: Gelatin zymography in HT-1080 cells; format: cell-based; conditions: 24 h, 25, 50, 100 μM (FIG. 8), dependent on concentration
# Procedure: Gelatin zymography protocol was used. Exponentially growing HT-1080 cells were seeded at 10^5/well in 24-well plates and incubated at 37° C. in 5% CO2. After 24 h, the culture medium was removed and 1 ml serum-free RPMI 1640 medium was added for washing twice. Add 120 μl of serum-free RPMI 1640 medium and 30 μl of fusion protein VH-LDP as prepared in example 3 to each well, and add 30 μl PBS to control well. Culturing the cells at 37° C. for 24 h. Harvest the culture medium, and centrifuging at 500 g for 5 min. Then take the supernatant for non-denaturalization electrophoresis on SDS-PAGE. Wash the gels with distilled water 3 times. Put the gels into 100 ml of 2.5% TritonX-100, shake on a shaker for 30 min at low speed. Then Wash the gels 2 times with distilled water; repeat the washing process with TritonX-100 above. The gels was washed with distilled water 2 times, and incubated at 37° C. for 16-18 h in 100 ml of gelatinase buffer (50 mM Tris-HCl, pH 7.5, 200 mM NaCl, 10 mM CaCl2, 1 μM ZnCl2). The gels were stained with Coomassie-brilliant blue R-250 and destained with acetic acid: methanol:water (10:45:45). The negative stained bands were observed.
# type IV collagenase = assay: ELISA immunoreactivity with type IV collagenase; format: binding; conditions: FIG. 4
# Procedure: (§3) Immunoreactivity of fusion protein VH-LDP was detected by ELISA. At first, type IV collagenase or tumor cells was coated or fixed to 96-well ELISA plates: well was coated with 100 μl of type IV collagenase (10 μg/ml, diluted by PBS) and the plates were stored at 4° C. overnight; Human hepatoma SMMC-7721 cells or human KB cells were seeded at 10^4/well in 96-well plates and cultured for 24 h, washed with PBS for 3 times, added 0.05% cold (4° C.) Glutaraldehyde and fixed for 15 min. Then the coated or fixed plates were washed with PBS 3 times, and blocked with 200 μl/well of 1% bovine serum albumin (BSA)/PBS at 4° C. overnight. The plates were washed 3 times with PBS. Then 200 μl of serial concentrations of fusion protein VH-LDP were added into each well of the plates and incubated for 2 hours at 37° C. Washing the plates 3 times with 0.05% Tween 20/PBS (PBST), adding 50 μl of anti-His6-Tag monoclonal antibody diluted 1:1500 to each well, and incubating at 37° C. for 1 h. Washing the plates 3 times with PBST, adding 50 μl of HRP conjugated goat anti-mouse IgG (at 1:2000 dilution), and incubating at 37° C. for 1 hour. Washing the plates with PBST 6 times, adding 100 μl of OPD substrate reaction solution to each well, incubating the plates at room temperature for 10 min in the dark. […] Then the optical density (OD) of each well was measured at 490 nm using a microplate reader.
# [3] = system: human hepatoma SMMC-7721 cells; assay: ELISA immunoreactivity with fixed SMMC-7721 cells; format: binding; conditions: FIG. 5
# Procedure: as §3
# [4] = State of refolded fusion protein in PBS solution; format: physicochemical
# Procedure: The inventors attempted to make fusion gene in the form of VH-LDP by fusing VH domain against type IV collagenase to apoprotein LDP of LDM, and then expressing the fusion protein in E. coli.
# The fusion protein VH-LDP after purification was refolded: the purified protein was diluted to a final concentration of 15 μM with eluting buffer mentioned above, and β-mercaptoethanol was added to a final concentration of 10 mM. After being stored at room temperature for 30 min, the sample was placed in a dialysis bag and dialyzed against at least 50 vol. of refolding buffer 1 (50 mM Tris-HCl pH 8.0, 1 mM EDTA, 200 mM NaCl, 6 M urea). And the following dialysis was against the same buffer with step-wise reduction in the urea concentration (3M, 2M, 1M, 0.5M, and 0M). On a 1-M stage, 750 μM of glutathione (GSSG) and 400 mM of L-Arginine were added to the dialysis buffer. Then the sample was dialyzed against 50 vol. of PBS solution (pH 7.4). Each dialysis was performed for 12 h and with buffer changed twice. All dialysis was performed at 4° C. After dialysis, the sample was centrifuged at 10,000 g for 30 min at 4° C. and the supernatant was collected. After being condensed, the active fusion protein VH-LDP was obtained and stored at −20° C. for later use.
# [5] = system: mouse normal liver sections; assay: Immunohistochemical (SABC) staining of mouse normal liver sections; format: binding; conditions: FIG. 7
# Procedure: as §2
# [6] = system: human colon carcinoma HT-29 cells; assay: MTT combination assay on HT-29 cells (CDI); format: cell-based; conditions: HT-29, MTT
# Procedure: MTT assay was used. After trypsin-EDTA digestion, the human colon carcinoma HT-29 cells in exponential growth were seeded at 4000 cells/well in 96-well plates, and cultured for 24 hours. Then add 20 μl of different concentrations of hydroxylcamptothecin or 5-fluorouracil; 8 hours later, add different concentrations of VH-LDP-AE. Continue to culture the cells at 37° C. in 5% CO2 for 72 h. Add 50 μl of MTT at concentration of 2 mg/ml, culture the cells at 37° C. for 4 hours. Then remove the supernatant; add 150 μl DMSO each well; ten minutes later, measure the absorbance at 560 nm on a microplate reader. In cancer pharmacology, interactions of drug combination were evaluated by coefficient of drug interaction (CDI). There existed synergistic effects with CDI<1, and there existed very significant ones with CDI<0.7. […] It was usual that monoclonal antibodies were combined with anti-cancer drugs.
# [7] = system: bFGF-stimulated angiogenesis; assay: Chick embryo allantoic membrane (CAM) anti-angiogenesis assay; format: in vivo; conditions: 72 h, 0.5 μg/egg (FIG. 10)
# Procedure: Anti-angiogenic activity of VH-LDP-AE was examined in chick embryoallantoic membrane assay (CAM). The surface of 7-day-old post-fertilization chick eggs (White Leghorn) in a 60% humidified incubator at 37° C. was sterilized and the CAM was […]) exposed by cutting a window (2 cm^2) on the egg shell using the false air-sac technique. After 24 h, 10 μl of bFGF was dipply added to agarose disks with the energized fusion protein VH-LDP-AE at various concentrations which was prepared as mentioned in Example 7, and then the disks were placed on top of the CAM. After the windows were sealed with transparent tape, the eggs were incubated for further 72 h.
molecule,measurement,setting,value
"CO[C@@]12[C@H](COC(N)=O)C3=C(C(=O)C(C)=C(N)C3=O)N1C[C@@H]1N[C@@H]12 [MMC, mitomycin]",Body weight begin,"transplanted hepatoma 22; 1 mg/kg, begin",18.82 g
same,Body weight end,"transplanted hepatoma 22; 1 mg/kg, end (day 14)",29.29 g
same,Inhibition rate,transplanted hepatoma 22; 1 mg/kg,51.5^Δ %
same,Tumor volume x ± s,transplanted hepatoma 22; 1 mg/kg,2.23 ± 2.15 cm^3
same,Inhibition rate,"transplanted hepatoma 22; 1 mg/kg, listed as mitomycin",51.5%
lidamycin [LDM],IC50,HT-1080 cells,2.21 pM
same,growth of colon carcinoma 26 in mice,colon carcinoma 26,remarkably inhibited
same,Inhibition rate,transplanted hepatoma 22; 0.05 mg/kg,79.6% and 79.6^ΔΔ %
same,Tumor volume x ± s,transplanted hepatoma 22; 0.05 mg/kg,0.94 ± 0.53 cm^3
same,maximal tolerated dose,transplanted hepatoma 22; mice,0.05 mg/kg
same,growth of human cancer xenograft cecum carcinoma Hce-8693,cecum carcinoma Hce-8693,potent inhibitory effect
same,IC50,KB cells,1.08 pM
same,growth of human cancer xenograft hepatoma Bel-7402,hepatoma Bel-7402,potent inhibitory effect
same,IC50,PG cells,6.3 pM
"VH-LDP: VH domain of anti-type IV collagenase mAb 3G11, GGGGS spacer, lidamycin apoprotein LDP and His6-Tag; SEQ ID NO: 2 (protein, fusion protein of Vh and LDP) MQVKLQQSGTEVVKPGASVKLSCKASGYIFTSYDIDWVRQTPEQGLEWIGWIFPGEGSTEYNEKFKGRATLSVDKSSSTAYMELTRLTSEDSAVYFCARGDYYRRYFDLWGQGTTVTVSSGGGGSAPAFSVSPASGLSDGQSVSVSVSGAAAGETYYIAQCAPVGGQDACNPATATSFTTDASGAASFSFVVRKSYTGSTPEGTPVGSVDCATAACNLGAGNSGLDLGHVALTFGLEHHHHHH",immunohistochemical staining in mouse hepatoma sections,[1],positively stained
same,inhibition of type IV collagenase activity secreted by cancer cells,[2],inhibit significantly
same,binding activity to type IV collagenase,type IV collagenase,positive
same,binding activity to human hepatoma SMMC-7721 cells,[3],positive
same,solubility after refolding,[4],soluble in PBS solution
same,fraction existing in monomer state,[4]; after refolding,75%
same,immunohistochemical staining in mouse normal liver sections,[5],negatively stained
"VH-LDP-AE (conjugate, AE chromophore assembled; fusion protein of Vh and LDP) MQVKLQQSGTEVVKPGASVKLSCKASGYIFTSYDIDWVRQTPEQGLEWIGWIFPGEGSTEYNEKFKGRATLSVDKSSSTAYMELTRLTSEDSAVYFCARGDYYRRYFDLWGQGTTVTVSSGGGGSAPAFSVSPASGLSDGQSVSVSVSGAAAGETYYIAQCAPVGGQDACNPATATSFTTDASGAASFSFVVRKSYTGSTPEGTPVGSVDCATAACNLGAGNSGLDLGHVALTFGLEHHHHHH",Inhibition rate,transplanted hepatoma 22; 0.125 mg/kg,88.1% and 88.1*^ΔΔ %
same,Tumor volume x ± s,transplanted hepatoma 22; 0.125 mg/kg,0.55 ± 0.24 cm^3
same,Inhibition rate,transplanted hepatoma 22; 0.25 mg/kg,95.9% and 95.9**^ΔΔ %
same,Tumor volume x ± s,transplanted hepatoma 22; 0.25 mg/kg,0.19 ± 0.21 cm^3
same,effect on growth of hepatoma 22 in mice,"transplanted hepatoma 22; both 0.25 mg/kg and 0.125 mg/kg, more potent than free lidamycin 0.05 mg/kg (FIG. 11)",inhibited or retarded the growth
same,body weight loss and side-effects during the experiments,"transplanted hepatoma 22; mouse, in vivo",No body weight loss and other severe side-effects were found
same,coefficient of drug interaction (CDI),[6]; 10 μM of 5-fluorouracil plus 3 ng/ml of VH-LDP-AE,< 0.7
same,coefficient of drug interaction (CDI),[6]; hydroxylcamptothecin (1 μM) plus VH-LDP-AE (3 ng/ml),< 0.7
same,suppression of angiogenesis stimulated by bFGF,[7],significantly suppress angiogenesis
